From publication PMC7010817

Target: PPARα (UniProt P23204)
Assay: Flag-JMJD3 co-IP, PPARα immunoblot
Details: reference: wild type, FGF21-treated; sites T1044

Substance: JMJD3 (KDM6B) (from UniProt Q5NCY0) T1044A, FGF21-treated
- binding against the reference: weaker
